The target in this test is extracellular fragment of lymphotoxin-beta receptor (LTβR) (629-LR-100, R&D Systems) (UniProt P36941). Kind of test: SPR. (In general: SPR reads the build-up and loss of mass on a sensor chip optically.)

What is called Kd is the concentration at which binding is half-saturated. A higher Kd goes with lower affinity. “Ixodes persulcatus salivary protein (IpSAP), recombinant (natural protein)” showed a Kd of 124 nM. This lies in the sub-micromolar range.

Values taken from PMC9704693.
